# From PMC8878318, “DogCatcher allows loop-friendly protein-protein ligation” (Cell Chemical Biology, 2022)
# Assays:
# [1] = molecular target: HaloTag7SS-DogTag (Streptococcus pneumoniae TIGR4); test: isopeptide bond formation followed by SDS-PAGE with Coomassie densitometry; reaction toward completion: 10 or 20 μM DogCatcher with 10 or 20 μM HaloTag7SS-DogTag, PBS pH 7.5, 25°C, 200 min
# [2] = molecular target: Gre2p-DogTag Loop B (Saccharomyces cerevisiae | Streptococcus pneumoniae TIGR4) (UniProt Q12068); test: isopeptide bond formation followed by SDS-PAGE with Coomassie densitometry; 5 μM of each protein in solution, PBS pH 7.5 (pH 7.4 in p-0004), 25°C; second-order rate constant from 1/[Catcher] against time
# [3] = molecular target: sfGFP-DogTag Loop A (Streptococcus pneumoniae TIGR4); test: as above
# [4] = molecular target: AviTag-DogTag-MBP (Streptococcus pneumoniae TIGR4); test: as above
# [5] = molecular target: AviTag-R2Tag-MBP (Streptococcus pneumoniae TIGR4); test: as above
# sfGFP-SpyTag003 Loop A = test: as above
# [6] = molecular target: Gre2p-SpyTag003 Loop B (Saccharomyces cerevisiae) (UniProt Q12068); test: as above
# Gre2p = molecular target: T1, Gre2p (Saccharomyces cerevisiae, UniProt Q12068); test: NADPH oxidation, absorbance at […] nm; format: biochemical; conditions: 1.5 mM isovaleraldehyde; 0.25 mM NADPH; 100 mM potassium phosphate pH 7.4; 25 °C
# T1 construct: gene GRE2; wild-type Gre2p without loop insertion, pET28-Gre2p synthetic codon-optimised gene, expressed in E. coli BL21 DE3 RIPL, Ni-NTA purified
# T1 sequence (Q12068 1-342): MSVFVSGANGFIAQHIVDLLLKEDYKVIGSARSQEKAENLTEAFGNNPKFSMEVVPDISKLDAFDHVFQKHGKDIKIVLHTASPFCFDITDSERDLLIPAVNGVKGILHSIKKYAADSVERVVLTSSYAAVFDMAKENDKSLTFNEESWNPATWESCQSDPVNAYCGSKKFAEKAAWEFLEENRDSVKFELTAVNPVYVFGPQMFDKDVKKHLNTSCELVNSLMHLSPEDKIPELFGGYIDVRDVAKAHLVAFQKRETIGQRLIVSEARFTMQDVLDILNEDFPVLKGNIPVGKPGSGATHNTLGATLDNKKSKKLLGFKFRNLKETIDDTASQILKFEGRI
compound,measurement,setting,value
DogCatcher (designed binder),percent of DogCatcher reacted (2-fold excess of HaloTag7SS-DogTag),[1],98%
same,percent of HaloTag7SS-DogTag reacted (2-fold excess of DogCatcher),[1],98%
same,second-order rate constant of covalent reaction,[2],850 M⁻¹ s⁻¹
same,second-order rate constant of covalent reaction,[3],1000 M⁻¹ s⁻¹
same,second-order rate constant of covalent reaction,[4],760 M⁻¹ s⁻¹
R2Catcher (domain or fragment),second-order rate constant of covalent reaction,[5],3 M⁻¹ s⁻¹
same,second-order rate constant of covalent reaction,[4],30 M⁻¹ s⁻¹
SpyCatcher003 (designed binder),second-order rate constant of covalent reaction,sfGFP-SpyTag003 Loop A,87 M⁻¹ s⁻¹
same,second-order rate constant of covalent reaction,[6],156 M⁻¹ s⁻¹
NC(=O)C1=CN([C@@H]2O[C@H](COP(=O)(O)OP(=O)(O)OC[C@H]3O[C@@H](n4cnc5c(N)ncnc54)[C@H](OP(=O)(O)O)[C@@H]3O)[C@@H](O)[C@H]2O)C=CC1 [NADPH],"NADPH oxidation, absorbance at 340 nm",Gre2p,Reduction of isovaleraldehyde to isoamyl alcohol by Gre2p is nicotinamide adenine dinucleotide phosphate (NADPH) dependent
